The results in this text go back to patent US20230183379A1 (INSERM INSTITUT NATIONAL DE LA SANT ET DE LA RECHERCHE M …, published 2023).

Assay [1] deals with T1, transferrin receptor 1 (TfR1), human (human, UniProt P02786 1-760).
T1 construct: whole, on cells; always tested on cells; also called human TfR1; native TfR1
Kind of assay: FACS on human Raji cells, anti-human IgG1-FITC.

Assay [2] has as its target T2, transferrin receptor 1 (TfR1), mouse (mouse, UniProt Q62351 1-763).
T2 construct: whole, on cells; also called mouse TfR1
Kind of assay: FACS on mouse P815 cells, anti-human IgG1-FITC.

The target of assay [3] is T3, mouse IL-6 (mouse, UniProt P08505 25-211).
T3 construct: Bought recombinant protein; also called Recombinant mouse IL-6 (Peprotech, 216-16)
T3 sequence (looked up): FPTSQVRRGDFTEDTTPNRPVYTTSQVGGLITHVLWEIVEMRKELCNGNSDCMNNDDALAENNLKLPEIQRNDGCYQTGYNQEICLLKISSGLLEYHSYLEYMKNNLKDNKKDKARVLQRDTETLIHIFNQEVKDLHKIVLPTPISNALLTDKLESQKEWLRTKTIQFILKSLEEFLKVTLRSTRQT
Kind of assay: ELISA on adsorbed recombinant mouse IL-6, pH 7.4, 40 nM antibody. Background: ELISA stands for enzyme-linked immunosorbent assay.

Assay [4] addresses T1, transferrin receptor 1 (TfR1), human. Kind of assay: cell-based or functional assay.
The target is the same in assay [5]. Kind of assay: FACS on Raji cells at 4 °C.
Procedure: All incubation steps were done on ice. Raji cells (5×10^5 cells) were resuspended in 100 μL of FACS buffer [PBS, 1% FBS] containing various concentrations of the primary antibody for 1 h, washed twice with FACS buffer, and then incubated with the suitable fluorescent secondary antibody. After a final wash, cells were analyzed by FACS. The apparent affinity was determined using the GraphPad software.
Assay [6] has as its target T2, transferrin receptor 1 (TfR1), mouse. Kind of assay: FACS on mouse P815 cells at 4 °C.
Assay [7] deals with T1, transferrin receptor 1 (TfR1), human. Kind of assay: FACS on Raji cells at 4 °C, anti-human IgG (Fc specific)-FITC.

T2 sequence (Q62351 whole entry): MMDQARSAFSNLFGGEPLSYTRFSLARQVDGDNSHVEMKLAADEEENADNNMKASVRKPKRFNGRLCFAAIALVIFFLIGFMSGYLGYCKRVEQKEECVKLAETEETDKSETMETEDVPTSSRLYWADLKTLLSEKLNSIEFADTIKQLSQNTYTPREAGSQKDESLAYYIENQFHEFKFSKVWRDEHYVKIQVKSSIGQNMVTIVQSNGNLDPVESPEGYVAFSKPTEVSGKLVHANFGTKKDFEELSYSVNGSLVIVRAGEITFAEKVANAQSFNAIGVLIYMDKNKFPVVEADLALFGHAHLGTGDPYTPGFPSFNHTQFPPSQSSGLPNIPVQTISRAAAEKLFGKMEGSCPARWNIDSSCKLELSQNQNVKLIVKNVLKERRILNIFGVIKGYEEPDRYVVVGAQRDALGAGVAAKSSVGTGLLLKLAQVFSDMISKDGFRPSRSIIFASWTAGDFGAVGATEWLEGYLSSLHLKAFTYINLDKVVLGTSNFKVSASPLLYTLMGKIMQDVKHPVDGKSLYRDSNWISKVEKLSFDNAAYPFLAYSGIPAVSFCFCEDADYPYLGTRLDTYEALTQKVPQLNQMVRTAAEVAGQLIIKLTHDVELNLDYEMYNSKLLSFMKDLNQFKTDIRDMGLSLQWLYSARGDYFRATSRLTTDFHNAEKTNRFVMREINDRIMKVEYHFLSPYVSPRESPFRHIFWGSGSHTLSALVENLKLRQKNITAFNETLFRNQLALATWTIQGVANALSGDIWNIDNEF
T1 sequence (P02786 whole entry): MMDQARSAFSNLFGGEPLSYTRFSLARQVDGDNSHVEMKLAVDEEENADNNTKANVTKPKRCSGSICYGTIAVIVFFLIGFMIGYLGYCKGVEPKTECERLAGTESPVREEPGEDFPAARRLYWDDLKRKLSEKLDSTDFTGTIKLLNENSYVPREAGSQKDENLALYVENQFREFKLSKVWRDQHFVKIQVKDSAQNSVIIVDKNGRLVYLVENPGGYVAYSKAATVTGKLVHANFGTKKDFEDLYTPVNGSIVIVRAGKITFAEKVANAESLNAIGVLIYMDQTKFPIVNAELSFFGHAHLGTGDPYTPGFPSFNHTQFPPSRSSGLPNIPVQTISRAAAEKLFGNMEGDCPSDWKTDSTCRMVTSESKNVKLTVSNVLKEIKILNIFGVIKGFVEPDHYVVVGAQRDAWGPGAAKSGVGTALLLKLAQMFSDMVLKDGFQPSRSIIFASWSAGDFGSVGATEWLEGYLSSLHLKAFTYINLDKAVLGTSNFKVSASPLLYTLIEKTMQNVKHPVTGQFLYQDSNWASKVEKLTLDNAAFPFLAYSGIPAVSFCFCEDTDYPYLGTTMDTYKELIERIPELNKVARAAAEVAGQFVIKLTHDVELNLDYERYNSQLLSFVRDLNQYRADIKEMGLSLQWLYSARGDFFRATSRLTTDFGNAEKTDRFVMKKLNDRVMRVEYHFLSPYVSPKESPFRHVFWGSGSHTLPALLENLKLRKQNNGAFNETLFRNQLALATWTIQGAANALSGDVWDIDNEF

B1: H9 scFv2-Fc (Fc fusion)
chain: QVQLAESGGGLVKPGGSLRLSCAASGFTFSDYYMSWIRQAPGKGLEWVSYISTSGSSIYYVDSVKGRFTISRDNAKNSLYLQMDSLRDDDTAVYYCARDLHGDYAFDSWGQGTLVTVSSGGGGSGGGGSGGGGSSELTQDPAVSVALGQTVRITCQGDSLRSYYASWYQQKPGQAPVLVIYGKNNRPSGIPDRFSGSKSGNSASLDISGLQSEDEADYYCATWDDNLSGPIFGGGTKVTVLG
notes: Bivalent (scFv)2-Fc; also called H9-Fc; not shown: Fc fragment of human IgG1 (pFUSE-hFc2(IL2ss) vector)
Take B1: the binding result in assay [1] is listed as “binds”.

B2: C32-IgG1 (antibody, V domains shown)
VH: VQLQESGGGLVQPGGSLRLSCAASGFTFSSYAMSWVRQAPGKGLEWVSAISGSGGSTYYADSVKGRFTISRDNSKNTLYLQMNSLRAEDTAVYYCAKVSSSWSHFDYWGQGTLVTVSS
VL: DVVMTQSPSTLSASVGDRVTITCRASQYISNWLAWYQQKPGKAPKLLIYKASSLESGVPSRFSGSGSGTEFTLTISSLQPEDFATYYCQESYNTPLFTFGPGTKLEIKR
notes: Full length human IgG1; also called C32 (IgG1 format)
As for B2, the binding result in assay [2] is “no binding”.

B3: VH4 anti-IL-6 human IgG1 (antibody, V domains shown)
VH: EVQLVQSGGGVVQPGESLRLSCAASGFTFSSYSMNWVRQAPGKGLEWVSVIYSGGSTYYADSVKGRFTISRDNSKNTLYLQMNSLRAEDTAVYYCAREVYHSSGYDDAFDIWGRGTMVTVSS
VL: DIQMTQSPSTLSASIGDRVTITCRASEGIYHWLAWYQQKPGKAPKLLIYKASSLASGAPSRFSGSGSGTDFTLTISSLQPDDFATYYCQQYSNYPLTFGGGTKLEIK
notes: Human IgG1; also called VH4-IgG1; anti-IL-6 VH4
Take B3: the binding result in assay [3] was “binds”.

B4: H7-scFv2 (50 kD dimeric (scFv)2 H7 antibody) (scFv)
scFv: QVQLQESGGGVVQPGRSLRLSCAASRFTFSSYAMHWVRQAPGKGLEWVAVISYDGSNKYYADSVKGRFTISRDNSKNTLYLQMNSLRAEDTAVYYCARDLSGYGDYPDYWGQGTLVTVSSGGGGSGGGGSGGGGSSELTQDPAVSVALGQTVRITCQGDSLRSYYASWYQQKPGQAPVLVMYGRNERPSGVPDRFSGSKSGTSASLAISGLQPEDEANYYCAGWDDSLTGPVFGGGTKLTVLG
Regarding B4, in assay [4], the “ERY-1 cell viability inhibition, IC50” value was 2 nM.

B5: scFv-Fc bispecific antibody (anti-TfR1 scFv / anti-IL-6 scFv, knob into hole Fc) (bispecific antibody)
chain 1: QVQLQESGGGVVQPGRSLRLSCAASRFTFSSYAMHWVRQAPGKGLEWVAVISYDGSNKYYADSVKGRFTISRDNSKNTLYLQMNSLRAEDTAVYYCARDLSGYGDYPDYWGQGTLVTVSSGGGGSGGGGSGGGGSSELTQDPAVSVALGQTVRITCQGDSLRSYYASWYQQKPGQAPVLVMYGRNERPSGVPDRFSGSKSGTSASLAISGLQPEDEANYYCAGWDDSLTGPVFGGGTKLTVLG
chain 2: EVQLVQSGGGVVQPGESLRLSCAASGFTFSSYSMNWVRQAPGKGLEWVSVIYSGGSTYYADSVKGRFTISRDNSKNTLYLQMNSLRAEDTAVYYCAREVYHSSGYDDAFDIWGRGTMVTVSSGGGGSGGGGSGGGGSDIQMTQSPSTLSASIGDRVTITCRASEGIYHWLAWYQQKPGKAPKLLIYKASSLASGAPSRFSGSGSGTDFTLTISSLQPDDFATYYCQQYSNYPLTFGGGTKLEIK
The term EC50 denotes the concentration that produces a half-maximal response. A lower EC50 goes with a more potent agent. B5: in assay [5], the EC50 was 30.1 nM.

B6: H7 scFv2-Fc (H7-Fc) (Fc fusion)
chain: QVQLQESGGGVVQPGRSLRLSCAASRFTFSSYAMHWVRQAPGKGLEWVAVISYDGSNKYYADSVKGRFTISRDNSKNTLYLQMNSLRAEDTAVYYCARDLSGYGDYPDYWGQGTLVTVSSGGGGSGGGGSGGGGSSELTQDPAVSVALGQTVRITCQGDSLRSYYASWYQQKPGQAPVLVMYGRNERPSGVPDRFSGSKSGTSASLAISGLQPEDEANYYCAGWDDSLTGPVFGGGTKLTVLG
notes: Bivalent 100 kD (scFv)2-Fc made in HEK-293 T cells; not shown: Fc fragment of human IgG1 (pFUSE-hFc2(IL2ss) vector)
In turn, B6 registered an EC50 in assay [6] of 0.8 nM.

B7: H7-scFv (monovalent) (scFv)
scFv: QVQLQESGGGVVQPGRSLRLSCAASRFTFSSYAMHWVRQAPGKGLEWVAVISYDGSNKYYADSVKGRFTISRDNSKNTLYLQMNSLRAEDTAVYYCARDLSGYGDYPDYWGQGTLVTVSSGGGGSGGGGSGGGGSSELTQDPAVSVALGQTVRITCQGDSLRSYYASWYQQKPGQAPVLVMYGRNERPSGVPDRFSGSKSGTSASLAISGLQPEDEANYYCAGWDDSLTGPVFGGGTKLTVLG
For the molecule B7, the “ERY-1 cell viability inhibition, IC50” value in assay [4] stood at 200 nM.

B8: F12 scFv2-Fc (Fc fusion)
chain: QVQLQESGGGLVQPGGSLRLSCAASGFSFNTYTMHWVRQAPGKGLEWVADIAYDGSTKYYADSVKGRFTISRDNAKNSLYLQMNSLRAEDTAVYYCARDAVAGEGYFDLWGRGTLVTVSSGGGGSGGGGSGGGGSQSALTQDPAVSVALGQTVRITCQGDSLRSYYASWYQQLPGTAPKLLIYRNNQRPSGVPDRFSGSKSGTSASLAISGLRSEDEADYYCAAWDDSLSAWVFGGGTKLTVLGA
notes: Bivalent (scFv)2-Fc; also called F12-Fc; not shown: Fc fragment of human IgG1 (pFUSE-hFc2(IL2ss) vector)
B8: the binding result in assay [1] and in assay [2] was “binds” throughout.

B9: F12-IgG1 (IgG1 anti-TfR1 F12 antibody) (antibody, V domains shown)
VH: QVQLQESGGGLVQPGGSLRLSCAASGFSFNTYTMHWVRQAPGKGLEWVADIAYDGSTKYYADSVKGRFTISRDNAKNSLYLQMNSLRAEDTAVYYCARDAVAGEGYFDLWGRGTLVTVSS
VL: QSALTQDPAVSVALGQTVRITCQGDSLRSYYASWYQQLPGTAPKLLIYRNNQRPSGVPDRFSGSKSGTSASLAISGLRSEDEADYYCAAWDDSLSAWVFGGGTKLTVLG
notes: Human IgG1; Produced as monoclonal control beside the tetravalent BsAb; also called F12 (anti TfR1 Human IgG1); parental mAb anti-TfR1 F12
As for B9, in assay [4], the “viability of Raji cells, 3 days, IC50” value was 0.8 nM; the “viability of XG6 and XG7 cells in 1% FCS, 3 days, IC50 of the combination F12 + VH4” value stood at 1 nM; the “viability of XG6 cells, 5 days, IC50” value was found to be 4 nM. For the same molecule, in assay [7], the EC50 came to 1 nM.

B10: H7-IgG1 (full length human IgG1 anti-TfR1) (antibody, V domains shown)
VH: QVQLQESGGGVVQPGRSLRLSCAASRFTFSSYAMHWVRQAPGKGLEWVAVISYDGSNKYYADSVKGRFTISRDNSKNTLYLQMNSLRAEDTAVYYCARDLSGYGDYPDYWGQGTLVTVSS
VL: SELTQDPAVSVALGQTVRITCQGDSLRSYYASWYQQKPGQAPVLVMYGRNERPSGVPDRFSGSKSGTSASLAISGLQPEDEANYYCAGWDDSLTGPVFGGGTKLTVLG
notes: also called H7-anti-TfR1 IgG1
Turning to B10, the binding result in assay [2] is on record as “no binding”.

B11: F2 scFv2-Fc (Fc fusion)
chain: QVQLQQSGGGVVQPGGSLRLSCAASEFTFSASGMHWVRQAPGKGLEWMAFIAYDGNQKFYADSVKGRFTISRDNSKNTLYLQMDSLRGEDTAVYYCAKEMQREGYFDYWGQGTLVTVSSGGGGSGGGGSGGGGSNFMLTQDPAVSVALGQTVRITCQGDSLRSYYASWYQQKPGQAPVLVIYGKNNRPSGIPDRFSGSKSGNSASLDISGLQSEDEADYYCATWDDNLSGPIFGGGTKVTVLG
notes: Bivalent (scFv)2-Fc; also called F2-Fc; not shown: Fc fragment of human IgG1 (pFUSE-hFc2(IL2ss) vector)
In the case of B11, the binding result in assay [1] was “binds”.

B12: G9 scFv2-Fc (Fc fusion)
chain: QVQLVESGGGLVEPGGSLRLSCAASGFTFSNYAINWVRQAPGKGLEWVANIHHDGNGKYYVDSVEGRFTISRDNAKNSLYLQMDSLRAEDTAIYYCARDGYGGYLDLWGQGTLVTVSSGGGGSGGGGSGGGGSSELTQDPAVSVALGQTVRITCQGDSLRSYYASWYQQKPGQAPVLVIYGKNNRPSGIPDRFSGSGSGNTASLTITGAQAEDEADYYCAAWDDSLSGPVFGGGTKVTVLG
notes: Bivalent (scFv)2-Fc; also called G9-Fc; not shown: Fc fragment of human IgG1 (pFUSE-hFc2(IL2ss) vector)
On to B12, for which, in assay [1], the binding result is listed as “binds”.
